The target in assay [1] is OB protein. As to the kind of experiment: BIACORE; OB protein immobilized, conditioned medium of 293 cells expressing the receptor. Background: In SPR one partner is held on a chip, and binding of the other changes the refractive index at the surface.
Assay [2] addresses OB protein. As to the kind of experiment: BIACORE; OB protein immobilized, conditioned medium of CHO cells expressing the receptor.

“recombinant soluble human OB receptor (leader + extracellular domain, Seq. ID No. 10)”: the results for the BIACORE read-out in assay [1] and in assay [2] were 191 and 151, respectively.
Consider “recombinant soluble human OB receptor with a C-terminal FLAG-tag (Seq. ID No. 12)”, for which the BIACORE read-out in assay [1] was determined as 172.

Source of the values: EP0877803B1.
